± gives the uncertainty stated by the source.
Assay: self-splicing fitness, log relative to wild type (ln ratio); higher = more splicing; Tetrahymena group I intron in knt gene, E. coli kanamycin selection, DiMSum; sequences stand for … in CUCUCU…GGAGGGAAAAGUUAUCAGGCAUGCACCUGGUAGCUAGUCUUUAAACCAAUAGAUUGCAUCGGUUUAAAAGGCAAGACCGUCAAAUUGCGGGAAAGGGGUCAACAGCCGUUCAGUACCAAGUCUCAGGGGAAACUUUGAGAUGGCCUUGCAAAGGGUAUGGUAAUAAGCUGACGGACAUGGUCCUAACCACGCAGCCAAGUCCUAAGUCAACAGAUCUUCUGUUGAUAUGGAUGCAGUUCACAGACUAAAUGUCGGUCGGGGAAGAUGUAUUCUUCUCAUAAGAUAUAGUCGGACCUCUCCUUAAUGGGAGCUAGCGGAUGAAGUGAUGCAACACUGGAGCCGCUGGGAACUAAUUUGUAUGCGAAAGUAUAUUGAUUAGUUUUGGAGUACUCGUGGUCG
Method in brief: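 The eight P1ex-region nucleotides of an intron in the knt kanamycin-resistance gene on pET-22b(+) were all randomised and the library put into E. coli BL21(DE3). Six replicate transformations were grown overnight at 37°C or 30°C on LB agar with or without 25 μg/mL kanamycin, together with 100 μg/mL carbenicillin, 50 μM IPTG and 0.2% rhamnose. Colonies were pooled and amplicon-sequenced on an Illumina HiSeq 2500. Fitness from DiMSum is the error-weighted combination of wild-type-normalised replicate fold changes, kanamycin over none.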

Row | Sequence | self-splicing fitness (ln) (30 °C) | self-splicing fitness (ln) (37 °C)
1 | CCUAAGCAAUAUUACGGUGG | -2.76 ± 0.11 | -2.03 ± 0.14
2 | GCGUAGCAAUAUUACGAUGU | -2.18 ± 0.068 | -1.15 ± 0.096
3 | CUGCAGCAAUAUUACGGGUG | -0.771 ± 0.049 | -0.0809 ± 0.058
4 | GGUCAGCAAUAUUACGUAGG | -2.33 ± 0.15 | -1.84 ± 0.18
5 | GAAUAGCAAUAUUACGAGGG | -3.39 ± 0.18 | -3.25 ± 0.19
6 | CGGGAGCAAUAUUACGAAUC |  | -0.75 ± 0.23
7 | CUAGAGCAAUAUUACGUUGC | -3.14 ± 0.32 | -2.18 ± 0.44
8 | AGGUAGCAAUAUUACGUGGC | -3.619 ± 0.028 | -2.74 ± 0.042
9 | UUGCAGCAAUAUUACGUGAA | -1.12 ± 0.069 | -0.162 ± 0.086
10 | CGACAGCAAUAUUACGCAGC |  | -1.96 ± 0.29
11 | GAGAAGCAAUAUUACGCUCG | -1.07 ± 0.14 | 0.735 ± 0.18
12 | UCAGAGCAAUAUUACGGUUC | -3.72 ± 0.33 | -1.84 ± 0.21
13 | GGGCAGCAAUAUUACGUAUA | -1.85 ± 0.13 | -1.1 ± 0.14
14 | AGCAAGCAAUAUUACGUUCU | -0.601 ± 0.084 | -0.279 ± 0.087
15 | CAGGAGCAAUAUUACGCUUA | -2.86 ± 0.21 | -2.02 ± 0.21
16 | UACUAGCAAUAUUACGCCUC | -2.28 ± 0.24 | -1.78 ± 0.28
17 | ACUUAGCAAUAUUACGCACG | -1.55 ± 0.1 | -0.683 ± 0.13
18 | CAACAGCAAUAUUACGGUUG | -3.26 ± 0.1 | -2.27 ± 0.12
19 | CGGGAGCAAUAUUACGAGGU | -4.39 ± 0.39 | -2.18 ± 0.31

Row | Sequence | self-splicing fitness (ln) (30 °C) | self-splicing fitness (ln) (37 °C)
20 | GAAAAGCAAUAUUACGGUGU | -2.55 ± 0.096 | -0.927 ± 0.11
21 | GGACAGCAAUAUUACGCAUC | -3 ± 0.12 | -0.76 ± 0.13
22 | GACGAGCAAUAUUACGUGUG | -2.9 ± 0.087 | -1.01 ± 0.077
23 | GACAAGCAAUAUUACGACUC | 0.206 ± 0.1 | 0.387 ± 0.12
24 | AUAAAGCAAUAUUACGGGCG | -0.028 ± 0.097 | -0.567 ± 0.1
25 | AUCCAGCAAUAUUACGUCUA | -0.908 ± 0.066 | -0.497 ± 0.07
26 | UUUUAGCAAUAUUACGUAAG | -0.681 ± 0.13 | -0.523 ± 0.14
27 | UGGCAGCAAUAUUACGGACG | 0.0917 ± 0.19 | 0.916 ± 0.24
28 | GGUUAGCAAUAUUACGUAGG | -2.51 ± 0.18 | -1.03 ± 0.14
29 | GUCCAGCAAUAUUACGGCAA | -0.33 ± 0.097 | -0.363 ± 0.085
30 | CGUUAGCAAUAUUACGCACU | -2.03 ± 0.12 | -0.906 ± 0.11
31 | AGCCAGCAAUAUUACGGUUA | -0.713 ± 0.13 | -0.226 ± 0.11
32 | GCCGAGCAAUAUUACGUACC | -2.15 ± 0.13 | -0.678 ± 0.16
33 | GGUGAGCAAUAUUACGCUAG |  | -1.65 ± 0.45
34 | GACGAGCAAUAUUACGUUAU | -4.17 ± 0.39 | -2.36 ± 0.31
35 | AUCUAGCAAUAUUACGCAUA | -2.4 ± 0.18 | -1.69 ± 0.15
36 | CGGCAGCAAUAUUACGUACG | -3.05 ± 0.17 | -1.31 ± 0.16
37 | CCCAAGCAAUAUUACGAGGC | -4.03 ± 0.15 | -3.25 ± 0.18
38 | UAGAAGCAAUAUUACGGGUA | -1.02 ± 0.16 | -0.329 ± 0.14

Source: the supplement of paper PMC7877785
